Experimental findings from PMC11042868 are described below.

The target of data set [1] is HER2 on MDA-MB-453 cells (Homo sapiens) (UniProt P04626). Description: cell binding, NIR fluorescence. As to conditions: live cells, 5% FBS, 1 h, live adherent cells (1e4/well), 0.01-10 uM 5'-IRD800 aptamer in growth medium with 5% FBS, 37 C (or 4 C), buffer salt and pH not stated.
Data set [2] has as its target HER2 on SK-BR-3 cells (Homo sapiens) (UniProt P04626). Description: cell binding, NIR fluorescence. As to conditions: live cells, 5% FBS, 1 h, live adherent cells (1e4/well), 0.01-10 uM 5'-IRD800 aptamer in growth medium with 5% FBS, 37 C (or 4 C), buffer salt and pH not stated.

In general, Kd refers to the constant that tells how readily two partners part at equilibrium. In the case of “CCGCCCAAACACACGTAAACAGATGAGGAGCCGACACTGGG [HMAP7 (M7)]”, the figures for the Kd in data set [1] and in data set [2] were 260 nM and 350 nM, respectively.
